In US20140087995A1 (published 2014):
Blank lines part the entries; values can stand above or below the binder they belong to. Numbered stars: 1 amine (or outer) side, 2 acyl side, 3 side chain; on linkers, the order of the positions; unused ones are H or OH. Bridge positions count the residues as written; N and C are the ends. Side chains are listed from the residue outwards. Ends that are not written are not given here. * marks the point of attachment. C20 diacid = O=C(O)CCCCCCCCCCCCCCCCCCC(=O)*; γGlu = O=C(O)[C@H](CCC(=O)[*:2])N[*:1]; AEEA = NCCOCCOCC(=O)O

Key:
rat calcitonin receptor [1] = molecular target: T1, rat calcitonin receptor (rat, UniProt P32214 25-516); experiment: SPA competition with 125I-calcitonin, membranes with rat calcitonin receptor (Assay VIII)
T1 construct: whole, on cells; Used as membranes prepared from the transfected cells; also called rCTR; rCT
T1 sequence (looked up): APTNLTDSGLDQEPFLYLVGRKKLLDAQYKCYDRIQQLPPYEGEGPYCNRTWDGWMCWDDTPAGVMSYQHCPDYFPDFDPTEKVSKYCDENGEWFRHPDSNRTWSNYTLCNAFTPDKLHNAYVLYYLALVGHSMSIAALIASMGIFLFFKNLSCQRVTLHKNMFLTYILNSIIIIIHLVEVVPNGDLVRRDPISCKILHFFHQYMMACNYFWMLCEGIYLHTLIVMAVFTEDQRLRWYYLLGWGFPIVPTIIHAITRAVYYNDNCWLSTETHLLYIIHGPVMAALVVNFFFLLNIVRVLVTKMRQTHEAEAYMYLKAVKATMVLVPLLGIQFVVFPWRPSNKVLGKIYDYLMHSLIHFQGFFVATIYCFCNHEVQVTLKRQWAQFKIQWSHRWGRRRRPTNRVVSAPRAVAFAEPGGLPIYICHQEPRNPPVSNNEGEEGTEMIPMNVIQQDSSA

rat calcitonin receptor [2] = molecular target: T1, rat calcitonin receptor; experiment: ratio of binding IC50 at rat calcitonin receptor to IC50 at rat amylin receptor (reference)
[3] = molecular target: T2, human calcitonin receptor (human, UniProt P30988 25-474); experiment: ratio of binding IC50 at human calcitonin receptor to IC50 at human amylin receptor (reference)
T2 construct: whole, on cells; Used as membranes prepared from the transfected cells; also called hCTR; hCT
T2 sequence (looked up): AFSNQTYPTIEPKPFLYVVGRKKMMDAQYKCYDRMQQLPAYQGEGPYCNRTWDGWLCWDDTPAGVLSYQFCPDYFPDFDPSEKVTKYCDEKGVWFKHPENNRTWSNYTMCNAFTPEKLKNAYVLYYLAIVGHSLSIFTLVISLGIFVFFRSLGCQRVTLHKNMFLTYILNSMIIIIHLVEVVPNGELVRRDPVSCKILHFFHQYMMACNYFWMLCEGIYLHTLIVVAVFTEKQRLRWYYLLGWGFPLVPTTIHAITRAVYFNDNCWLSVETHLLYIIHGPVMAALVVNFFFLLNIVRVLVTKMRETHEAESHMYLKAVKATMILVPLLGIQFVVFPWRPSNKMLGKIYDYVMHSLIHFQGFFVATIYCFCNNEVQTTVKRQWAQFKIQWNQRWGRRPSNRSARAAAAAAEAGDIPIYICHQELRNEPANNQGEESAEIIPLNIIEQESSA
Summary of the method: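 Competition binding by SPA with cell membranes (35 ng/μL) and SPA beads in 50 mM Hepes pH 7.4 with 1 mM CaCl2, 5 mM MgCl2, 0.1% OA and 0.02% Tween20. Incubated 120 min at 25 °C with shaking, then counted.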

[4] = molecular target: T3, rat amylin receptor (rat calcitonin receptor with rat RAMP 3) (rat, UniProt P32214 25-516; Q9JJ73 23-147); experiment: SPA competition with 125I-rat amylin, membranes with rat calcitonin receptor + rat RAMP3 (Assay VI)
T3 construct: whole, on cells; Used as membranes prepared from the transfected cells; also called rAmylin-R; rAmylin
T3 sequence (looked up) 1: T1 sequence (looked up)
T3 sequence (looked up) 2: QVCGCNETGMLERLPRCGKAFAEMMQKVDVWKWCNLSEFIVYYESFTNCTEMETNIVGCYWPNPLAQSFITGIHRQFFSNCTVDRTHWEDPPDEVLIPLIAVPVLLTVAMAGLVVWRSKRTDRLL

rat calcitonin receptor [5] = molecular target: T4, rat calcitonin receptor (rat, UniProt P32214 25-516); experiment: ratio of binding IC50s: rat calcitonin receptor (Assay VIII) over rat amylin receptor (Assay VI)
T4 construct: whole, on cells; In cell membranes prepared from transiently transfected BHK tk'ts 13 cells (Assay VIII); also called rCTR; rat calcitonin (a) receptor
T4 sequence (looked up): T1 sequence (looked up)

[6] = molecular target: T5, human calcitonin receptor (human, UniProt P30988 25-474); experiment: ratio of binding IC50s: human calcitonin receptor (Assay VII) over human amylin receptor (Assay V)
T5 construct: whole, on cells; Cell membranes from the stably transfected cell line (Assay VII); also called hCTR; hCT
T5 sequence (looked up): T2 sequence (looked up)
Procedure: The resulting pellet was resuspended, homogenized and centrifuged (20.000 rpm, 15 min) in a buffer containing 20 mM Na-HEPES and 0.1 mM EDTA (pH 7.4, buffer 2). The resulting pellet was resuspended in buffer 2 and protein concentration was measured (BCA protein Assay, Pierce). The homogenate was kept cold during the whole procedure. The membranes were kept at −80° C. until use. The assay was performed in a 384 well Optiplate (PerkinElmer) in a total volume of 40 ul. Membranes were mixed with SPA beads. Final concentration of membranes 35 ng/μL final and SPA beads was 0.05 mg/well. Test-compounds were dissolved in DMSO and further diluted in assay buffer (50 mM Hepes, pH 7.4, 1 mM CaCl2, 5 mM MgCl₂, 0.1% OA and 0.02% Tween20). […] The final mixture was incubated with shaking at 400 rpm for 120 min at 25° C. prior to centrifugation (1500 rpm, 10 min). Samples were analyzed on TopCounter™ (Packard). The IC₅₀ was calculated using (one site binding competition analysis) GraphPad Prism5 as a measure of receptor affinity.
Membranes were prepared in the following way; the cells were rinsed with PBS and incubated with Versene for approximately 5 min before harvesting. The cells were flushed with PBS and the cell-suspension was centrifuged for 5 min at 1000 rpm. Cells were homogenized (Ultrathurrax) in a buffer containing 20 mM Na-HEPES and 10 mM EDTA (pH 7.4) and centrifuged at 20.000 rpm for 15 min. The resulting pellet was resuspended, homogenized and centrifuged (20.000 rpm, 15 min) in a buffer containing 20 mM Na-HEPES and 0.1 mM EDTA (pH 7.4, buffer 2). The resulting pellet was resuspended in buffer 2 and protein concentration was measured (BCA protein Assay, Pierce). The homogenate was kept cold during the whole procedure. The membranes were kept at −80° C. until use. Assay was performed in a 384 well Optiplate (PerkinElmer) in a total volume of 40 ul. Membranes were mixed with SPA beads.

rat calcitonin receptor [7] = molecular target: T4, rat calcitonin receptor; experiment: SPA competition binding, displacement of 125I-Calcitonin from membranes of BHK tk'ts 13 cells with rat calcitonin receptor (Assay VIII)
[8] = molecular target: T6, rat amylin receptor (rat calcitonin receptor + rat RAMP 3) (rat, UniProt P32214 25-516; Q9JJ73 23-147); experiment: SPA competition binding, displacement of 125I-rat amylin from membranes of BHK tk'ts 13 cells with rat calcitonin receptor + rat RAMP 3 (Assay VI)
T6 construct: whole, on cells; Receptor complex in cell membranes prepared from transiently transfected BHK tk'ts 13 cells (Assay VI); also called rAmylin-R; rat amylin 3(a) receptor
T6 sequence (looked up) 1: T1 sequence (looked up)
T6 sequence (looked up) 2: T3 sequence (looked up) 2

- IC50 (rat calcitonin receptor [1]): 388 nM
- Ratio rCT/rAmylin binding (rat calcitonin receptor [2]): 71.3
- Ratio hCT/hAmylin binding [3]: 63.4
- IC50 [4]: 5.45 nM
B1: N^ε1-[2-[2-[2-[[2-[2-[2-[[(4S)-4-carboxy-4-(19-carboxynonadecanoylamino)butanoyl]amino]ethoxy]ethoxy]acetyl]amino]ethoxy]ethoxy]acetyl]-[Arg17,Pro21,Pro27,Arg34 … (peptide)
peptide: K([AEEA-AEEA-γGlu-C20 diacid])CNTATCATQRLANFLRHSSPNFGAIPSSTNVGRNTY-NH2
modifications: disulfide 2-7; N-terminus assumed
SMILES: CC[C@H](C)[C@H](NC(=O)[C@H](C)NC(=O)CNC(=O)[C@H](Cc1ccccc1)NC(=O)[C@H](CC(N)=O)NC(=O)[C@@H]1CCCN1C(=O)[C@H](CO)NC(=O)[C@H](CO)NC(=O)[C@H](Cc1c[nH]cn1)NC(=O)[C@H](CCCNC(=N)N)NC(=O)[C@H](CC(C)C)NC(=O)[C@H](Cc1ccccc1)NC(=O)[C@H](CC(N)=O)NC(=O)[C@H](C)NC(=O)[C@H](CC(C)C)NC(=O)[C@H](CCCNC(=N)N)NC(=O)[C@H](CCC(N)=O)NC(=O)[C@@H](NC(=O)[C@H](C)NC(=O)[C@@H]1CSSC[C@H](NC(=O)[C@@H](N)CCCCNC(=O)COCCOCCNC(=O)COCCOCCNC(=O)CC[C@H](NC(=O)CCCCCCCCCCCCCCCCCCC(=O)O)C(=O)O)C(=O)N[C@@H](CC(N)=O)C(=O)N[C@@H]([C@@H](C)O)C(=O)N[C@@H](C)C(=O)N[C@@H]([C@@H](C)O)C(=O)N1)[C@@H](C)O)C(=O)N1CCC[C@H]1C(=O)N[C@@H](CO)C(=O)N[C@@H](CO)C(=O)N[C@H](C(=O)N[C@@H](CC(N)=O)C(=O)N[C@H](C(=O)NCC(=O)N[C@@H](CCCNC(=N)N)C(=O)N[C@@H](CC(N)=O)C(=O)N[C@H](C(=O)N[C@@H](Cc1ccc(O)cc1)C(N)=O)[C@@H](C)O)C(C)C)[C@@H](C)O
notes: Analogue of human amylin; disulfide and C-terminal amide as told for h-amylin; also called compound 95

- IC50 (rat calcitonin receptor [1]): 159 nM
- Ratio rCT/rAmylin binding (rat calcitonin receptor [2]): 71.1
- Ratio hCT/hAmylin binding [3]: 104
- IC50 [4]: 2.24 nM
B2: N^ε1-[2-[2-[2-[[2-[2-[2-[[(4S)-4-carboxy-4-(19-carboxynonadecanoylamino)butanoyl]amino]ethoxy]ethoxy]acetyl]amino]ethoxy]ethoxy]acetyl]-[Arg17,Pro21,Pro27,His34 … (peptide)
peptide: K([AEEA-AEEA-γGlu-C20 diacid])CNTATCATQRLANFLRHSSPNFGAIPSSTNVGHNTY-NH2
modifications: disulfide 2-7; N-terminus assumed
SMILES: CC[C@H](C)[C@H](NC(=O)[C@H](C)NC(=O)CNC(=O)[C@H](Cc1ccccc1)NC(=O)[C@H](CC(N)=O)NC(=O)[C@@H]1CCCN1C(=O)[C@H](CO)NC(=O)[C@H](CO)NC(=O)[C@H](Cc1c[nH]cn1)NC(=O)[C@H](CCCNC(=N)N)NC(=O)[C@H](CC(C)C)NC(=O)[C@H](Cc1ccccc1)NC(=O)[C@H](CC(N)=O)NC(=O)[C@H](C)NC(=O)[C@H](CC(C)C)NC(=O)[C@H](CCCNC(=N)N)NC(=O)[C@H](CCC(N)=O)NC(=O)[C@@H](NC(=O)[C@H](C)NC(=O)[C@@H]1CSSC[C@H](NC(=O)[C@@H](N)CCCCNC(=O)COCCOCCNC(=O)COCCOCCNC(=O)CC[C@H](NC(=O)CCCCCCCCCCCCCCCCCCC(=O)O)C(=O)O)C(=O)N[C@@H](CC(N)=O)C(=O)N[C@@H]([C@@H](C)O)C(=O)N[C@@H](C)C(=O)N[C@@H]([C@@H](C)O)C(=O)N1)[C@@H](C)O)C(=O)N1CCC[C@H]1C(=O)N[C@@H](CO)C(=O)N[C@@H](CO)C(=O)N[C@H](C(=O)N[C@@H](CC(N)=O)C(=O)N[C@H](C(=O)NCC(=O)N[C@@H](Cc1c[nH]cn1)C(=O)N[C@@H](CC(N)=O)C(=O)N[C@H](C(=O)N[C@@H](Cc1ccc(O)cc1)C(N)=O)[C@@H](C)O)C(C)C)[C@@H](C)O
notes: Analogue of human amylin; disulfide and C-terminal amide as told for h-amylin; also called compound 97

- Ratio rCT/rAmylin binding (rat calcitonin receptor [5]): 132
- Ratio hCT/hAmylin binding [6]: 7.8
- IC50 (rat calcitonin receptor [7]): 86.8 nM
- IC50 [8]: 0.659 nM
Binder: K([γGlu-γGlu-C20 diacid])CNTATCATQRLAEFLRHSSNNPGAILSSTNVGPETY-NH2 (disulfide 2-7)

- Ratio rCT/rAmylin binding (rat calcitonin receptor [5]): 114
- Ratio hCT/hAmylin binding [6]: 18
- IC50 (rat calcitonin receptor [7]): 23.4 nM
- IC50 [8]: 0.205 nM
B3: N^ε1-[(4S)-4-carboxy-4-[[(4S)-4-carboxy-4-(19-carboxynonadecanoylamino)butanoyl]amino]butanoyl]-[Glu14,Arg17,Pro21,Pro27,Pro34,Phe37]-h-amylin (peptide)
peptide: K([γGlu-γGlu-C20 diacid])CNTATCATQRLAEFLRHSSPNFGAIPSSTNVGPNTF-NH2
modifications: disulfide 2-7; N-terminus assumed
SMILES: CC[C@H](C)[C@H](NC(=O)[C@H](C)NC(=O)CNC(=O)[C@H](Cc1ccccc1)NC(=O)[C@H](CC(N)=O)NC(=O)[C@@H]1CCCN1C(=O)[C@H](CO)NC(=O)[C@H](CO)NC(=O)[C@H](Cc1c[nH]cn1)NC(=O)[C@H](CCCNC(=N)N)NC(=O)[C@H](CC(C)C)NC(=O)[C@H](Cc1ccccc1)NC(=O)[C@H](CCC(=O)O)NC(=O)[C@H](C)NC(=O)[C@H](CC(C)C)NC(=O)[C@H](CCCNC(=N)N)NC(=O)[C@H](CCC(N)=O)NC(=O)[C@@H](NC(=O)[C@H](C)NC(=O)[C@@H]1CSSC[C@H](NC(=O)[C@@H](N)CCCCNC(=O)CC[C@H](NC(=O)CC[C@H](NC(=O)CCCCCCCCCCCCCCCCCCC(=O)O)C(=O)O)C(=O)O)C(=O)N[C@@H](CC(N)=O)C(=O)N[C@@H]([C@@H](C)O)C(=O)N[C@@H](C)C(=O)N[C@@H]([C@@H](C)O)C(=O)N1)[C@@H](C)O)C(=O)N1CCC[C@H]1C(=O)N[C@@H](CO)C(=O)N[C@@H](CO)C(=O)N[C@H](C(=O)N[C@@H](CC(N)=O)C(=O)N[C@H](C(=O)NCC(=O)N1CCC[C@H]1C(=O)N[C@@H](CC(N)=O)C(=O)N[C@H](C(=O)N[C@@H](Cc1ccccc1)C(N)=O)[C@@H](C)O)C(C)C)[C@@H](C)O
